Changes are numbered by the printed parent chain.
B1: B03 (designed binder)
chain: NLWQIFYILNTIHKRTGDPTAKKLPKALREAMKKGDEKAMKELAKKALKYIRS
B2: B06 (designed binder)
chain: B1 chain with Q4V, I8L, P25I, R29D, M40T
B3: A03 (designed binder)
chain: MEEEKYVRELVKKYYEGKLSQPEAVEEIRKYARKKGLEAWKLIWAFMQLVKRDI
B4: A08 (designed binder)
chain: B3 chain with G17K, I43V, Q48E, D53N
B5: A03dslf04 (designed binder)
chain: MEEEKCVRELCKKYYEGKLSQPEAVEEIRKCARKKGLEAWKLIWAFMQCVKRDIHHHHHH
notes: E. coli, purified
B6: A08dslf03 (designed binder)
chain: B5 chain with C6Y, G17K, C31Y, I43V, Q48E, D53N
notes: E. coli, purified
B7: A05dslf01 (designed binder)
chain: B5 chain with L10Q, G17K, E27I
notes: E. coli, purified
B8: B0402SB (designed binder)
chain: QLWQIFYLLNTCIKRTGDPTCKKLIKALRECLKKGDAKACDELAKKAVKYIMS
B9: B0402SA (designed binder)
chain: B8 chain with Q1E, A37M
B10: B0402SC (designed binder)
chain: B8 chain with G17C, I25K, K45D
B11: rA11dslf02A (designed binder)
chain: MEPEKFLKELCKAYYEGKLSQQEAVEEIRSYAMKWGLEAWMLIWYFMQCVKRDI
B12: rA11dslf02C (designed binder)
chain: B11 chain with M1P, K8S, Q22I, M33R, K34S, M41K
B13: rA11dslf02D (designed binder)
chain: PEPEKFLAELCKAYYEGKLSQPEAVEEIRSYARKWGLEAWKLVWYFMLCVKRDI
B14: rA11dslf02B (designed binder)
chain: MEPEEFLLELCKAYYEGKLSQIEAVEEIRHYARSFGLEAWQLIWYFMQCVKRDI
B15: rA11dslf02E (designed binder)
chain: B13 chain with K5Q, A8T, A13K, S30K, V43I, L48Q
B16: B10 (designed binder)
chain: NLWVIFYVLNTIIKRTGDPTAKKLVKALQEAMKKWDEKATKELAKKATKYIRS
B17: B11 (designed binder)
chain: B16 chain with V4I, V8Q, V25I, M32N, T40L
B18: B04 (designed binder)
chain: B1 chain with I8L, H13I, P25K, M32L, M40V, L48M
B19: B07 (designed binder)
chain: B1 chain with I8M, H13F, P25L, M32T, L48T
B20: B05 (designed binder)
chain: B1 chain with Q4M, I8L, H13F, P25K, R29N, L48T
B21: B01 (designed binder)
chain: NLWMIFYLLNTIIKRTGDPTAKKLLKALQEALKKYDEKAIKELAKKAMKYIRS
B22: B09 (designed binder)
chain: B1 chain with I8V, H13Y, M32L, G35N, M40T, L48M
B23: B02 (designed binder)
chain: B1 chain with H13I, P25K, M32T, L48M
B24: B12 (designed binder)
chain: B1 chain with I8V, H13Y, G35N, M40I, L48M
B25: A14 (designed binder)
chain: B3 chain with V7L, G17Q, E27I, I28V, Q48E, D53Y
B26: A13 (designed binder)
chain: B3 chain with E3P, L10K, A45H
B27: A01 (designed binder)
chain: B3 chain with E3P, V7L, L10K, I43V, A45Y, Q48E
B28: A09 (designed binder)
chain: MEEEKYLRELVKKYYEQKLSQPEAVEIIRKYARKKGEEAWYLIWMFMELVKRDI
B29: A10 (designed binder)
chain: B3 chain with V7L, L10Q, Q21V, P22V, I28V
B30: A02 (designed binder)
chain: B3 chain with V7L, G17Q, Q21H, P22Q, E27I, I43V
B31: A05 (designed binder)
chain: B3 chain with L10Q, G17K, E27I
B32: A11 (designed binder)
chain: B3 chain with Q21H, P22Q, E26V, I43V, A45M, D53N
B33: A04 (designed binder)
chain: B3 chain with Q21H, I43V
B34: A07 (designed binder)
chain: B3 chain with V7L, G17K, E27I, I43V
B35: A06 (designed binder)
chain: B3 chain with E3P, G17K, K41M, I43V, A45H
B36: A12 (designed binder)
chain: B3 chain with E3P, G17Q, P22Q, E27I, K41M, I43V

What follows are binders tested against T1, human IL-23R (hIL-23R), custom construct with C-terminal avi and his tags, biotinylated (human, UniProt Q5VWK5 24-355, limits assumed, enzymatically biotinylated via the avi-tag) (assay: biolayer interferometry titration, biotinylated hIL-23R immobilised on streptavidin tips, 1:1 fit).
T1 construct: immobilized on streptavidin tips in BLI, labeled target in FACS; also called human IL-23 receptor
T1 sequence (looked up): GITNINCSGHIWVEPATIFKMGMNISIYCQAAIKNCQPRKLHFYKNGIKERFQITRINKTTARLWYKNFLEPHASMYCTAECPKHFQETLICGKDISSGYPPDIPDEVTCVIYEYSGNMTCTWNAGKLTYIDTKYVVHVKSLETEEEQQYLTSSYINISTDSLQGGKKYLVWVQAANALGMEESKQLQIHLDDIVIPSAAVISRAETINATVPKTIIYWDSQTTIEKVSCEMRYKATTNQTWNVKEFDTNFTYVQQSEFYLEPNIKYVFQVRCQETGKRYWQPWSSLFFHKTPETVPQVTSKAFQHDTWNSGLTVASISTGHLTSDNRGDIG
Protocol: Variants were first screened for relative binding to hIL-23R with biolayer interferometry (BLI). hIL-23R was immobilized on the BLI sensor tips and binding to each variant in solution at a constant concentration (50 nM) was measured to qualitatively determine relative performance of the variants. For the best-performing variants, binding constants (KD, including kₒₙ, and koff) were quantitatively determined with BLI titration experiments in triplicate.
Qualitative and quantitative assessment of binding affinity was performed using biolayer interferometry (ForteBio Octet™ […] and associated software for analysis). Enzymatically biotinylated target protein (30 nM) was immobilized on streptavidin-coated sensor tips, then sequentially dipped in wells with: buffer only (baseline), inhibitor in solution (association), and buffer only (dissociation). Kinetic constants were determined from the mathematical fit of a 1:1 binding model.

Kd	koff	kon	Binder
140 pM	5.6e-05 s⁻¹	400000 M⁻¹ s⁻¹	B1
320 pM	0.00011 s⁻¹	350000 M⁻¹ s⁻¹	B2
250 pM	0.00024 s⁻¹	980000 M⁻¹ s⁻¹	B3
370 pM	0.00028 s⁻¹	770000 M⁻¹ s⁻¹	B4
130 pM	0.00034 s⁻¹	2.6e+06 M⁻¹ s⁻¹	B5
140 pM	0.0002 s⁻¹	1.5e+06 M⁻¹ s⁻¹	B6
460 pM	0.00044 s⁻¹	960000 M⁻¹ s⁻¹	B7

These binders were tested against T1, human IL-23R (hIL-23R), custom … (assay: yeast display FACS, SIF incubation then labeled hIL-23R, 5-7 rounds).
Protocol: Yeast libraries were first incubated in SIF at 30C, then washed thoroughly and incubated with labeled hIL-23R, and cells retaining the highest binding signal (top 1-5%) were collected by FACS. Two rounds of selection were performed for each library, and the SIF incubation time and/or concentration of proteases were increased from first to second round. […] Indeed in several libraries we saw a large population of Myc-negative, binding-positive cells. In parallel, we performed two rounds of selection for binding to hIL-23R only, without pre-incubation in SIF. […] Best mutations were included in combinatorial libraries, sorted as above for 5-7 rounds after which individual clones were sequenced. Variants present in the final sorts were expressed in E. coli and characterized (SEQ ID NOS: 70-74 and 153-164).
(§1) Yeast strain EBY100 was transformed with each library and vector by electroporation and grow in minimal media selective for the yeast strain (-ura) and the transforming plasmid (-trp).²⁷ Expression was induced with 2% galactose. Surface expression was detected with anti-Myc-FITC (Immunology Consultants Laboratory) conjugate, and binding to biotinylated IL-23R was detected with streptavidin-PE (Invitrogen).
SIF SSM and combinatorial libraries were prepared as follows: after 16-24 hours induction, yeast were spun down, washed with PBSF, resuspended in SIF (recipe described below) at an OD of 2.0, and incubated at 30° C. shaking for 30-90 minutes as noted. After SIF digest, cells were spun down and washed 4 times with 800 uL PBSF, manually aspirating the supernatant each time to ensure complete washing to remove proteases. SIF-treated cells were then treated with target protein as described above.

binding result	Binder
binds	B8
binds	B9
binds	B10
binds	B11
binds	B12
binds	B13
binds	B14
binds	B15

These binders were tested against T1, human IL-23R (hIL-23R), custom … (assay: yeast display FACS, combinatorial library).
Protocol: To further enhance affinity, we incorporated mutations previously shown to enhance binding in a combinatorial library that was then sorted for binding hIL-23R to convergence in 6 rounds. The final selection pools were plated on solid media, and individual clones sequenced. 26 unique combinatorial variants appearing in the final selection pool (SEQ ID NOS: 11-24 and 111-122) were selected for expression in E. coli and further biophysical characterization.
as §1
Yeast were then washed with PBSF and incubated for 2-5 minutes with stain solution (1:100 each anti-Myc-FITC and streptavidin-PE), washed, and resuspended for analysis and selection by FACS. FACS consecutive gates were set as follows: (1) cell granularity and size, selecting for yeast cells (BSC vs. FSC); (2) cell morphology, selecting singlets (FSC-height vs. FSC-width); (3) expression, selecting expressors by proxy of the Myc-tag (FITC fluorescence histogram); and (4) binding signal, selecting the top 1-5% relative to total population (PE vs. FITC).

binding result	Binder
binds	B16
binds	B17
binds	B18
binds	B19
binds	B20
binds	B21
binds	B22
binds	B23
binds	B24
binds	B25
binds	B26
binds	B27
binds	B28
binds	B29
binds	B30
binds	B31
binds	B32
binds	B33
binds	B34
binds	B35
binds	B36
